Experiments:
[1] = biological target: T1, full-length human PD1 on cells (human, UniProt Q15116 25-288); assay: cell-based or functional assay
[2] = biological target: T1, full-length human PD1 on cells; assay: flow cytometry, freshly isolated resting human PBMCs (table title), γδ T cells
Protocol: (§1) For the binding assay 0.1×10⁶ fresh or activated PBMCs were added to each well of a round-bottom suspension cell 96-well plates (greiner bio-one, cellstar, Cat. No. 650185). Plates were centrifuged 5 minutes with 350×g and at 4° C. and supernatant were discarded. Afterwards cells were stained in 100 μL/well DPBS containing 1:5000 diluted fixable viability dye eF660 (eBioscience, Cat.-No. 65-0864-18) for 30 minutes at 4° C. in the dark. Cells were washed once with 200 μL ice cold cold DPBS buffer. Next, 50 μL/well of 4° C. cold FACS buffer (DPBS supplied with 2% FBS, 5 mM EDTA pH8 (Amresco, Cat. No. E177) and 7.5 mM Sodium azide (Sigma-Aldrich, Cat.-No. S2002)) containing titrated concentrations of construct 7.1, construct 7.3, construct 7.5 and construct 7.6 and as controls control B, control C, control D, control M and control F were added and cells were incubated for 60 minutes at 4° C., washed three times with 200 μL/well 4° C. FACS buffer. […] Data was analyzed using FlowJo V10 (FlowJo, LLC) and GraphPad Prism 6.04 (GraphPad Software, Inc)

[3] = biological target: T2, human 4-1BB on cells (human, UniProt Q07011 24-255); assay: flow cytometry on HeLa-huCD137-NFkB-luc clone 26 cells; PE-conjugated anti-human IgG secondary; geo mean
T2 construct: whole, on cells; also called HeLa-hu4-1BB-NFkB-luc clone 26; HeLa-huCD137-NFkB-luc clone 26 cells
Protocol: Cells were washed once with 200 μL DPBS. Cells were resuspended in 100 μL/well of 4° C. cold DPBS buffer containing 1:5000 diluted Fixable Viability Dye eFluor 660 (eBioscience, Cat. No. 65-0864-18) and plates were incubated for 30 minutes at 4° C. Cells were washed once with 200 μL/well 4° C. cold DPBS buffer and resuspended in 50 μL/well of 4° C. cold FACS buffer (DPBS supplied with 2% FBS, 5 mM EDTA pH8 (Amresco, Cat. No. E177) and 7.5 mM Sodium azide (Sigma-Aldrich S2002)) containing PD1-targeted 4-1BB split trimeric ligand Fc fusion antigen binding molecules at a series of concentrations, followed by incubation for 1 hour at 4° C. After extensive washing, cells were further stained with 50 μL/well of 4° C. cold FACS buffer containing 5 μg/mL PE-conjugated AffiniPure anti-human IgG F(ab′)2-fragment-specific goat F(ab′)2 fragment (Jackson ImmunoResearch, Cat. No. 109 116 098) for 30 minutes at 4° C. Cells were washed twice with 200 μL/well 4° C. […] Data was analyzed using FlowJo V10 (FlowJo, LLC) and GraphPad Prism 6.04 (GraphPad Software, Inc).
(§2) Gates were set on living tumor cells and geo means of fluorescence intensity of PE-conjugated AffiniPure anti-human IgG IgG Fcγ-fragment-specific goat F(ab′)2 fragment were blotted against the titrated concentration of PD1-targeted 4-1BB split trimeric ligand Fc fusion antigen binding molecules or their controls.

[4] = biological target: T1, full-length human PD1 on cells; assay: flow cytometry, activated human PBMCs, γδ T cells
Protocol: (§3) Cells were further incubated for 2 days at 37° C. and 5% CO₂
as §1

[5] = biological target: T1, full-length human PD1 on cells; assay: flow cytometry, activated human PBMCs, CD4 T cells
Protocol: as §3, §1

[6] = biological target: T1, full-length human PD1 on cells; assay: flow cytometry, freshly isolated resting human PBMCs (table title), CD4 T cells
Protocol: as §1

[7] = biological target: T1, full-length human PD1 on cells; assay: flow cytometry, activated human PBMCs, CD8 T cells
Protocol: as §3, §1

[8] = biological target: T1, full-length human PD1 on cells; assay: flow cytometry on CHO-K1-huPD1 clone 5 cells
Source text: For binding assays on PD1 and 4-1BB expressing tumor cells two genetically modified tumor cells were used. The generation of human expressing HeLa-hu4-1BB-NFκB-luc clone 26 cells will be described in Example 5.3.1. For human PD1 expressing tumor cell lines, CHO-k1 cells were transfected with human PD1 as following: parental adherent CHO-K1 cell line (ATCC CCL-61) was stably transfected with plasmid 15311_hPD1-fl_pUC_Neo coding for full-length human PD1 and selection with G418 (Neomycin resistance marker on plasmid).
0.1×10⁶ tumor cells resuspended in DPBS (Gibco by Life Technologies, Cat. No. 14190 326) were added to each well of a round-bottom suspension cell 96-well plates (greiner bio-one, cellstar, Cat. No. 650185). Cells were washed once with 200 μL DPBS. Cells were resuspended in 100 μL/well of 4° C. cold DPBS buffer containing 1:5000 diluted Fixable Viability Dye eFluor 660 (eBioscience, Cat. No. 65-0864-18) and plates were incubated for 30 minutes at 4° C. […] Data was analyzed using FlowJo V10 (FlowJo, LLC) and GraphPad Prism 6.04 (GraphPad Software, Inc).
as §2

[9] = biological target: T1, full-length human PD1 on cells; assay: flow cytometry, activated human PBMCs, CD19 cells
Protocol: as §3, §1

T1 sequence (Q15116 25-288 limits assumed): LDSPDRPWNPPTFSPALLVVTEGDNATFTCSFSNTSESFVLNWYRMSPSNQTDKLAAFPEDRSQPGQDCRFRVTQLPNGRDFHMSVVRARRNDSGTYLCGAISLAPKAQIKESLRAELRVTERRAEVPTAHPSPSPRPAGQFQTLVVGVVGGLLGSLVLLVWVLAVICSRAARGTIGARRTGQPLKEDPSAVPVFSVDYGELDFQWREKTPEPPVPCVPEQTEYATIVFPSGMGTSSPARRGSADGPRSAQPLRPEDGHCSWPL
T2 sequence (Q07011 24-255): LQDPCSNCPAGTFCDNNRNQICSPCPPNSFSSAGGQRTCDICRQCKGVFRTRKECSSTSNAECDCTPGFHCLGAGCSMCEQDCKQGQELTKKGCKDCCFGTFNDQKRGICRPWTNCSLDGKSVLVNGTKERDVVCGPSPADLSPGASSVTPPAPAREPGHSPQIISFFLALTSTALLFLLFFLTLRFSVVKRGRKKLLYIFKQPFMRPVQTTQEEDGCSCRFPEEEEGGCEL

| Percentage of IFN gamma secretion in MLR against rec hu IL-2 (=100%), dilution 1:12 [1] | Percentage of IFN gamma secretion in MLR against rec hu IL-2 (=100%), dilution 1:120 [1] | Percentage of IFN gamma secretion in MLR against rec hu IL-2 (=100%), dilution 1:1200 [1] | EC50 [2] | binding result [3] | EC50 [4] | EC50 [5] | EC50 [6] | EC50 [7] | EC50 [8] | EC50 [9] | Binder |
| --- | --- | --- | --- | --- | --- | --- | --- | --- | --- | --- | --- |
|  |  |  | 0.03 nM | no binding (tested: ~300 nM) | 0.71 nM | 0.33 nM | 0.03 nM | 0.3 nM | 1.59 nM | 0.33 nM | anti-PD1(0314) huIgG1 PGLALA (control M) (antibody, V domains shown, monospecific IgG1 of clone 0314; also called PD1 targeted human IgG control M) VH: EVQLLESGGGLVQPGGSLRLSCAASGFSFSSYTMSWVRQAPGKGLEWVATISGGGRDIYYPDSVKGRFTISRDNSKNTLYLQMNSLRAEDTAVYYCVLLTGRVYFALDSWGQGTLVTVSS VL: EIVLTQSPATLSLSPGERATLSCRASESVDTSDNSFIHWYQQKPGQSPRLLIYRSSTLESGIPARFSGSGSGTDFTLTISSLEPEDFAVYYCQQNYDVPWTFGQGTKVEIKR |
| 99% | 72% | 21% |  |  |  |  |  |  |  |  | PD1-0078 (antibody, V domains shown) VH: QVQLQQPGAELVKPGASVKMSCKASGYTFTSTWMHWVKQRPGQGLEWIGAIDPSDSYTTYNQKFKGKATLTVDTSSTTAYMQLSSLTSEDSAVYYCTRSPFDYWGQGTTLTVSS VL: DIVMTQSHKFMSTSVGDRVSITCKASQDVSTAVAWYQQKPGQSPKLLIYSASYRYTGVPDRFTGSGSGTDFTFAISSVQAEDLAVYYCQQHYSHPFTFGSGTKLEIK |

The remaining lines, values behind:

| Binder | Percentage of IFN gamma secretion in MLR against rec hu IL-2 (=100%), dilution 1:12 [1] | Percentage of IFN gamma secretion in MLR against rec hu IL-2 (=100%), dilution 1:120 [1] | Percentage of IFN gamma secretion in MLR against rec hu IL-2 (=100%), dilution 1:1200 [1] | EC50 [2] | binding result [3] | EC50 [4] | EC50 [5] | EC50 [6] | EC50 [7] | EC50 [8] | EC50 [9] |
| --- | --- | --- | --- | --- | --- | --- | --- | --- | --- | --- | --- |
| PD1-0069 (antibody, V domains shown) VH: QVQLQQSGPELVRPGVSVKISCKGSGYTFTDYAMHWVKQSHARTLEWIGVISTYSGDTNYNQKFKDKATMTVDKSSSTAYLELARMTSEDSAIYYCARLGITTGFAYWGQGTLVTVSA VL: DIVLTQSPASLAVSLGQRATISCRASKGVSTSSYSFMHWYQQKPRQPPKLLIKYASYLESGVPARFSGSGSGTDFTLNIHPVEEEDAATYYCHHSREFPWTFGGGTKLEIK | 76% | 71% | 55% |  |  |  |  |  |  |  |  |
| PD1-0073 (antibody, V domains shown) VH: EVKLVESGGGLVKPGGSLKLSCAASGFTFSNYGMSWIRQTPEKGLEWVATISGGGRDTYYPDSVKGRFTISRDNVKNNLYLQMSSLRSEDTAFYYCASYYYGIDYWGQGTSVTVSS VL: DIVMTQPHKFMSTSVGDRVRITCKASQDVTTAVAWYQQKPGQSPKLLIYWASTRHTGVPDRFTGSGSGTEFTLTISSVQAEDLALYYCQQHYSIPWTFGGGTKLEIK | 103% | 63% | 38% |  |  |  |  |  |  |  |  |
| PD1-0050 (antibody, V domains shown) VH: DVQLQESGPGLVKPSQSLSLTCTVTGYSITSDYAWNWIRQFPGNKLEWMGYITYTGRTSYNPSLKSRISITRDTSKNQFFLQLNSVTTEDTATYYCAREMDYYGSTLDYWGQGTTLTVSS VL: KIVLTQSPASLAVSLRQRATISCRASESVDRYGNSFIHWYQQKPGQPPKVLIYRASNLESGFPARFSGSGSRTDFTLTIDPVEADDAATYYCQQNNEDPYTFGSGTKLEIK | 136% | 96% | 33% |  |  |  |  |  |  |  |  |
